Source: patent US20030125257A1, “Assay for identifying beta secretase inhibitors” (priority 2001, published 2003)
Square brackets hold non-standard residues; d marks the D form. Ends that are not written are not given here. Sta = CC(C)C[C@H](N)[C@@H](O)CC(=O)O

Target: T1, purified BACE (Homo sapiens, UniProt P56817)
T1 construct: Pooled fractions containing full-length BACE were passed over a 5 ml HiTrap Q column; 6xHis (C); made in house; host or cells: Sf9 insect cells (recombinant baculovirus, pFASTBAC1)
Assay: Competitive radioligand binding assay (RLBA)
Settings: binding to purified BACE as in example 6, FIG. 4
Experimental: 96 well microplates (Optiplate Packard) are coated with purified BACE protein using a concentration of 1 μg/ml in 30 mM sodium citrate buffer adjusted to pH 5.5. The coating is achieved by incubation of 100 μl/well for 1-3 days at 4° C. The plate is then washed with 2×300 μl/well of 10 mM citrate pH 4.1. To each well 100 μl binding buffer (30 mM citrate, 100 mM NaCl, 0.1% BSA, pH 4.1) is dispensed. The test compound (peptide H-4848 in FIGS. 4A and B) is added in 5 μl from a DMSO stock solution or appropriate dilutions. To this the tracer (tritiated Compound A) is added in 10 μl/well from a 10 μCi/ml stock solution in binding buffer. After incubation for 1.5-2 hours in a humid chamber at ambient temperature the plate is washed with 2×300 μl/well water and flipped on a dry towel. Following the addition of 50 μl/well MicroScint20 (Packard) the plate is sealed and vibrated for 5 seconds. The bound radioactivity is counted on a Topcount (Packard). Total binding is typically between 2000 and 10000 cpm/well depending mainly on the purity and concentration of the BACE protein. Non-specific binding as assessed by competition with >1 μM peptide H-4848 (Bachem #H-4848) is typically between 30 and 300 cpm/well. The IC-50 values are calculated by Microsoft Excel FIT.

T1 sequence (P56817 46-501): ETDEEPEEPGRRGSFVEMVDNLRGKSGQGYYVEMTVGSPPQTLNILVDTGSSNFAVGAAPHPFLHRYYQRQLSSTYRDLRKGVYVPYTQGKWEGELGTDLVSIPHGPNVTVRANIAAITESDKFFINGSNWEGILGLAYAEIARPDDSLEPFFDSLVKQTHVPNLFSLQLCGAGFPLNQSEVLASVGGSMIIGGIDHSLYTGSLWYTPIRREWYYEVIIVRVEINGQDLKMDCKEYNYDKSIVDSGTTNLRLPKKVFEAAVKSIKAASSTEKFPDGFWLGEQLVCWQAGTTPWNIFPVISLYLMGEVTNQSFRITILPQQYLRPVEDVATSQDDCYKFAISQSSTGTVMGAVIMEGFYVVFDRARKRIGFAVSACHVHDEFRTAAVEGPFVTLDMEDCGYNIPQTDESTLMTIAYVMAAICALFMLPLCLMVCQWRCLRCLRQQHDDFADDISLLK

## tritiated compound A: Compound A with iodine exchanged for 3H by reduction on palladium; tracer of the binding assay (EVN[Sta]VAE[Tyr(3H2)]-NH2)
  equilibrium binding isotherm (Scatchart analysis): single binding site isotherm
